Results: the Immune Epitope Database (IEDB)
Blank lines part the entries; values can stand above or below the sequence they belong to.

Assays:
[1] = target: HLA-A*02:17; assay: IEDB peptide-MHC binding, purified MHC/competitive/radioactivity; filed as Kd, often an IC50 or EC50 that approximates it; ≥ and ≤ were set here for values at or beyond the usual limits of such assays
[2] = target: HLA-A*02:06; assay: as above
[3] = target: HLA-A*24:02; assay: IEDB peptide-MHC binding, purified MHC/competitive/fluorescence; ≥ and ≤ were set here for values at or beyond the usual limits of such assays; details: source organism: Sudan ebolavirus
[4] = target: HLA-A*02:01; assay: as above; details: source organism: Sudan ebolavirus
[5] = target: HLA-A*11:01; assay: as above
[6] = target: HLA-A*02:03; assay: IEDB peptide-MHC binding, purified MHC/competitive/radioactivity; filed as Kd, often an IC50 or EC50 that approximates it; ≥ and ≤ were set here for values at or beyond the usual limits of such assays
[7] = target: HLA-A*02:01; assay: as above
[8] = target: HLA-A*02:01; assay: IEDB peptide-MHC binding, purified MHC/direct/fluorescence; filed as Kd, often an IC50 or EC50 that approximates it; ≥ and ≤ were set here for values at or beyond the usual limits of such assays; details: source organism: Tetraodon nigroviridis
[9] = target: HLA-B*39:01; assay: IEDB peptide-MHC binding, purified MHC/competitive/fluorescence; filed as Kd, often an IC50 or EC50 that approximates it; ≥ and ≤ were set here for values at or beyond the usual limits of such assays
[10] = target: HLA-A*26:01; assay: as above
[11] = target: HLA-B*15:17; assay: as above
[12] = target: HLA-B*46:01; assay: as above
[13] = target: HLA-A*69:01; assay: as above
[14] = target: HLA-B*27:03; assay: as above
[15] = target: HLA-B*57:01; assay: as above
[16] = target: HLA-B*15:01; assay: as above; details: source organism: Homo sapiens
[17] = target: HLA-B*51:01; assay: as above
[18] = target: HLA-B*18:01; assay: as above
[19] = target: HLA-A*68:02; assay: IEDB peptide-MHC binding, purified MHC/competitive/radioactivity; filed as Kd, often an IC50 or EC50 that approximates it; ≥ and ≤ were set here for values at or beyond the usual limits of such assays
[20] = target: HLA-B*15:09; assay: IEDB peptide-MHC binding, purified MHC/direct/fluorescence; filed as Kd, often an IC50 or EC50 that approximates it; ≥ and ≤ were set here for values at or beyond the usual limits of such assays; details: source organism: Burkholderia mallei ATCC 23344
[21] = target: HLA-B*08:01; assay: IEDB peptide-MHC binding, purified MHC/competitive/radioactivity; filed as Kd, often an IC50 or EC50 that approximates it; ≥ and ≤ were set here for values at or beyond the usual limits of such assays
[22] = target: HLA-A*03:01; assay: IEDB peptide-MHC binding, purified MHC/direct/fluorescence; filed as Kd, often an IC50 or EC50 that approximates it; ≥ and ≤ were set here for values at or beyond the usual limits of such assays
[23] = target: HLA-A*11:01; assay: as above
[24] = target: HLA-A*31:01; assay: IEDB peptide-MHC binding, purified MHC/competitive/fluorescence; filed as Kd, often an IC50 or EC50 that approximates it; ≥ and ≤ were set here for values at or beyond the usual limits of such assays
[25] = target: HLA-B*08:02; assay: IEDB peptide-MHC binding, purified MHC/direct/fluorescence; filed as Kd, often an IC50 or EC50 that approximates it; ≥ and ≤ were set here for values at or beyond the usual limits of such assays
[26] = target: HLA-B*08:01; assay: as above; details: source organism: Listeria monocytogenes serotype 4b str. H7858
[27] = target: HLA-A*03:01; assay: IEDB peptide-MHC binding, purified MHC/competitive/fluorescence; filed as Kd, often an IC50 or EC50 that approximates it; ≥ and ≤ were set here for values at or beyond the usual limits of such assays
[28] = target: HLA-A*02:01; assay: as above; details: source organism: Escherichia coli 536
[29] = target: HLA-B*48:01; assay: IEDB peptide-MHC binding, purified MHC/direct/fluorescence; filed as Kd, often an IC50 or EC50 that approximates it; ≥ and ≤ were set here for values at or beyond the usual limits of such assays; details: source organism: Escherichia coli O157:H7
[30] = target: HLA-B*27:05; assay: as above; details: source organism: Escherichia coli O157:H7
[31] = target: HLA-B*15:42; assay: IEDB peptide-MHC binding, purified MHC/competitive/fluorescence; filed as Kd, often an IC50 or EC50 that approximates it; ≥ and ≤ were set here for values at or beyond the usual limits of such assays
[32] = target: HLA-B*45:06; assay: as above
[33] = target: HLA-B*83:01; assay: as above; details: source organism: human gammaherpesvirus 4
[34] = target: HLA-A*02:12; assay: IEDB peptide-MHC binding, purified MHC/direct/fluorescence; filed as Kd, often an IC50 or EC50 that approximates it; ≥ and ≤ were set here for values at or beyond the usual limits of such assays; details: source organism: dengue virus type 3
[35] = target: HLA-A*68:01; assay: IEDB peptide-MHC binding, purified MHC/competitive/radioactivity; filed as Kd, often an IC50 or EC50 that approximates it; ≥ and ≤ were set here for values at or beyond the usual limits of such assays; details: source organism: Dengue virus 2 Jamaica/1409/1983
[36] = source organism: Dengue virus 2 Jamaica/1409/1983
[37] = source organism: Sudan ebolavirus
[38] = source organism: Dengue virus 3 Martinique/1243/1999
[39] = source organism: Dengue virus 3 Sri Lanka/1266/2000
[40] = source organism: Dengue virus 3 Singapore/8120/1995
[41] = source organism: Dengue virus 3 China/80-2/1980
[42] = source organism: Influenza A virus (A/Viet Nam/HN/2004(H5N1))
[43] = source organism: Dengue virus 4 Philippines/H241/1956
[44] = source organism: Dengue virus 2 Thailand/NGS-C/1944
[45] = source organism: Dengue virus 4 Dominica/814669/1981
[46] = source organism: Dengue virus 1 Brazil/97-11/1997
[47] = source organism: Dengue virus 1 Singapore/S275/1990
[48] = source organism: Bacillus cereus G9241
[49] = source organism: Escherichia coli 536
[50] = source organism: Influenza A virus (A/Memphis/1/1978(H1N1))
[51] = source organism: human gammaherpesvirus 4
[52] = source organism: Coxiella burnetii
[53] = source organism: Yersinia pestis
[54] = source organism: Yersinia pestis FV-1
[55] = source organism: West Nile virus

Sequence: AAAWYLWEV
- Kd [1, 36]: 1420 nM
- Kd [2, 36]: 3.38 nM

Sequence: AIDFLLRRW
- IC50 [3]: 38700 nM
- IC50 [4]: 55200 nM
- IC50 [5, 37]: ≥ 156000 nM

Sequence: ALFSGVSWV
- Kd [6, 38]: 0.36 nM
- Kd [1, 39]: 452 nM
- Kd [2, 38]: 1.97 nM

Sequence: ALFSGVSWVM
- Kd [1, 39]: 686 nM
- Kd [7, 39]: 7.22 nM

Sequence: FGGFSTLDK
- IC50 ([5]; source organism: Variola virus): ≥ 77700 nM

- Kd [8]: 9.9 nM
- Kd ([9]; source organism: Homo sapiens): ≥ 20000 nM
- Kd ([10]; source organism: Homo sapiens): ≥ 20000 nM
- Kd ([11]; source organism: Homo sapiens): ≥ 20000 nM
- Kd ([12]; source organism: Homo sapiens): ≥ 20000 nM
- Kd ([13]; source organism: Homo sapiens): ≥ 20000 nM
- Kd ([14]; source organism: Homo sapiens): ≥ 20000 nM
- Kd ([15]; source organism: Homo sapiens): ≥ 20000 nM
- Kd [16]: ≥ 20000 nM
- Kd ([17]; source organism: Homo sapiens): ≥ 20000 nM
- Kd ([18]; source organism: Homo sapiens): ≥ 20000 nM
Sequence: FMDPGIFPR

Sequence: FVGKTVWFV
- Kd [19, 40]: 1.85 nM
- Kd [1, 41]: 28.7 nM
- Kd [7, 41]: 4.65 nM
- Kd [2, 40]: 8.76 nM

Sequence: GEELPTVVL
- Kd [20]: ≥ 20000 nM

Sequence: GMLWMADVPL
- Kd [1, 41]: 65.3 nM
- Kd [21, 40]: 1420 nM
- Kd [7, 41]: 4.89 nM

Sequence: GTFGPVHFR
- Kd [22, 42]: 26 nM
- Kd [23, 42]: 1.6 nM
- Kd ([24]; source organism: Influenza A virus H3N2): ≤ 1 nM

Sequence: HLKRRKEPL
- Kd ([25]; source organism: Listeria monocytogenes serotype 4b str. H7858): 456 nM
- Kd [26]: 16 nM

Sequence: ILGAQALPV
- Kd [1, 43]: 2550 nM
- Kd [7, 43]: 32.7 nM

Sequence: ISKSMRDQR
- IC50 ([5]; source organism: Variola virus): 23300 nM

Sequence: LILGAQALPV
- Kd [1, 43]: 482 nM
- Kd [7, 43]: 54.4 nM
- Kd [2, 43]: 18.3 nM

Sequence: LMMTTIGIV
- Kd ([6]; source organism: Dengue virus 2 Peru/IQT2913/1996): 0.9 nM
- Kd [1, 44]: 183 nM
- Kd [7, 44]: 5.88 nM

Sequence: LQMEDKAWLV
- Kd [1, 36]: 119 nM
- Kd [7, 36]: 3.64 nM
- Kd [2, 36]: 2.72 nM

Sequence: LSMGLITIAV
- Kd [19, 45]: 78.7 nM
- Kd [1, 45]: 2410 nM
- Kd [7, 45]: 79.6 nM
- Kd [2, 45]: 30.5 nM

Sequence: LVISGVFPV
- Kd [19, 36]: 0.37 nM
- Kd [6, 36]: 14.1 nM
- Kd [1, 36]: 1.96 nM
- Kd [7, 36]: 29.3 nM
- Kd [2, 36]: 1.65 nM

Sequence: LVMAFIAFL
- Kd [19, 46]: 21 nM
- Kd [1, 47]: 15.4 nM
- Kd [7, 47]: 40.1 nM
- Kd [2, 46]: 14.3 nM

Sequence: MLLMLLPTAL
- Kd [1, 47]: 78 nM
- Kd [7, 47]: 16.6 nM
- Kd [2, 46]: 5.36 nM

Sequence: MLYDRINLR
- Kd [24, 48]: 3.4 nM
- Kd [27, 48]: 10.7 nM

- Kd [9, 49]: ≥ 20000 nM
- Kd [10, 49]: ≥ 20000 nM
- Kd [11, 49]: ≥ 20000 nM
- Kd [12, 49]: ≥ 20000 nM
- Kd [13, 49]: ≥ 20000 nM
- Kd [14, 49]: ≥ 20000 nM
- Kd [15, 49]: ≥ 20000 nM
- Kd [28]: ≥ 20000 nM
- Kd [17, 49]: ≥ 20000 nM
- Kd [18, 49]: ≥ 20000 nM
Sequence: RAMDVYCHR

Sequence: RLFKHGLKR
- Kd [24, 50]: 14.5 nM
- Kd [27, 50]: 7.9 nM

- Kd [29]: ≥ 20000 nM
- Kd [30]: 24.8 nM
Sequence: RRHPMRLRK

Sequence: SATKRWGFR
- IC50 [5, 37]: ≥ 119000 nM

Sequence: SIILEFFLMV
- Kd [1, 43]: 118 nM
- Kd [7, 43]: 9.85 nM
- Kd [2, 46]: 15.7 nM

Sequence: SQAAFGLPI
- Kd [31, 51]: ≥ 5000 nM
- Kd [32, 51]: 600 nM
- Kd [33]: ≥ 5000 nM

Sequence: SQIRRFNLR
- Kd [22, 52]: 1230 nM
- Kd [23, 52]: 13.6 nM
- Kd ([24]; source organism: Pseudomonas putida F1): 1.02 nM

Sequence: SVQWFRLPR
- Kd [22, 53]: 582 nM
- Kd [23, 53]: ≤ 1 nM
- Kd [31, 54]: ≥ 5000 nM
- Kd [32, 54]: ≥ 5000 nM
- Kd [24, 54]: ≤ 0.1 nM

Sequence: TLKRRSWPL
- Kd ([25]; source organism: dengue virus type 3): 88 nM
- Kd [34]: 4 nM
- Kd [21, 38]: 1.18 nM

Sequence: TTPMMIQTR
- IC50 ([5]; source organism: Vaccinia virus): 46100 nM

Sequence: TVNPIVTEK
- Kd ([23]; source organism: Dengue virus): 2.3 nM
- Kd [35]: 26.5 nM
- Kd ([24]; source organism: dengue virus type 2): 14500 nM

Sequence: VLRKRWTAK
- Kd [23, 55]: ≥ 20000 nM
- Kd [24, 55]: 58.6 nM
